Results taken from the supplement of paper PMC7877785.
± gives the uncertainty stated by the source.

Assay: self-splicing fitness, log relative to wild type (ln ratio); higher = more splicing; Tetrahymena group I intron in knt gene, E. coli kanamycin selection, DiMSum; sequences stand for … in CUCUCU…GGAGGGAAAAGUUAUCAGGCAUGCACCUGGUAGCUAGUCUUUAAACCAAUAGAUUGCAUCGGUUUAAAAGGCAAGACCGUCAAAUUGCGGGAAAGGGGUCAACAGCCGUUCAGUACCAAGUCUCAGGGGAAACUUUGAGAUGGCCUUGCAAAGGGUAUGGUAAUAAGCUGACGGACAUGGUCCUAACCACGCAGCCAAGUCCUAAGUCAACAGAUCUUCUGUUGAUAUGGAUGCAGUUCACAGACUAAAUGUCGGUCGGGGAAGAUGUAUUCUUCUCAUAAGAUAUAGUCGGACCUCUCCUUAAUGGGAGCUAGCGGAUGAAGUGAUGCAACACUGGAGCCGCUGGGAACUAAUUUGUAUGCGAAAGUAUAUUGAUUAGUUUUGGAGUACUCGUGGUCG
In short: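 The eight P1ex-region nucleotides of an intron in the knt kanamycin-resistance gene on pET-22b(+) were all randomised and the library put into E. coli BL21(DE3). Six replicate transformations were grown overnight at 37°C or 30°C on LB agar with or without 25 μg/mL kanamycin, together with 100 μg/mL carbenicillin, 50 μM IPTG and 0.2% rhamnose. Colonies were pooled and amplicon-sequenced on an Illumina HiSeq 2500. Fitness from DiMSum is the error-weighted combination of wild-type-normalised replicate fold changes, kanamycin over none.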

| Sequence | self-splicing fitness (ln) (30 °C) | self-splicing fitness (ln) (37 °C) |
| --- | --- | --- |
| CCAUAGCAAUAUUACGUUAA | -3.44 ± 0.34 | -3.04 ± 0.38 |
| CCAUAGCAAUAUUACGUUUU | -3.58 ± 0.16 | -2.75 ± 0.17 |
| CCCAAGCAAUAUUACGAAAC | -2.72 ± 0.22 | -2.04 ± 0.27 |
| CCCAAGCAAUAUUACGACAU | -3.83 ± 0.021 | -2.8 ± 0.037 |
| CCCAAGCAAUAUUACGAGCG | -2.62 ± 0.12 | -2 ± 0.13 |
| CCCAAGCAAUAUUACGAUGC | -4.67 ± 0.29 | -2.15 ± 0.24 |
| CCCAAGCAAUAUUACGCAAC | -3.16 ± 0.26 | -2.71 ± 0.38 |
| CCCAAGCAAUAUUACGCAAG | -3.34 ± 0.19 | -2.86 ± 0.22 |
| CCCAAGCAAUAUUACGCACG | -2.65 ± 0.17 | -2.84 ± 0.43 |
| CCCAAGCAAUAUUACGCCCA | -2.33 ± 0.24 | -2.46 ± 0.25 |
| CCCAAGCAAUAUUACGCCGA | -2.01 ± 0.32 |  |
| CCCAAGCAAUAUUACGGAAA | -2.22 ± 0.15 | -3.47 ± 0.3 |
| CCCAAGCAAUAUUACGGAGU | -3.37 ± 0.11 | -2.47 ± 0.11 |
| CCCAAGCAAUAUUACGGAUG | -3.07 ± 0.1 | -2.49 ± 0.11 |
| CCCAAGCAAUAUUACGGCAA | -2.32 ± 0.14 | -2.69 ± 0.16 |
| CCCAAGCAAUAUUACGGCGG | -3.72 ± 0.23 | -2.08 ± 0.21 |
| CCCAAGCAAUAUUACGGGAC | -4.01 ± 0.18 | -2.67 ± 0.15 |
| CCCAAGCAAUAUUACGGGAG | -3.79 ± 0.13 | -2.29 ± 0.13 |
| CCCAAGCAAUAUUACGGGCG | -3.29 ± 0.17 | -1.79 ± 0.15 |
| CCCAAGCAAUAUUACGGGGA | -2.82 ± 0.13 | -1.62 ± 0.09 |
| CCCAAGCAAUAUUACGGGGU | -3.46 ± 0.12 | -2.35 ± 0.16 |
| CCCAAGCAAUAUUACGGUAC | -4.14 ± 0.23 | -2.71 ± 0.17 |
| CCCAAGCAAUAUUACGGUUC | -3.38 ± 0.13 | -2.6 ± 0.18 |
| CCCAAGCAAUAUUACGUCAC | -3.87 ± 0.2 | -2.82 ± 0.15 |
| CCCAAGCAAUAUUACGUCCC | -3.35 ± 0.43 |  |
| CCCAAGCAAUAUUACGUCUG | -3.87 ± 0.19 | -2.18 ± 0.21 |

| Sequence | self-splicing fitness (ln) (30 °C) | self-splicing fitness (ln) (37 °C) |
| --- | --- | --- |
| CCCAAGCAAUAUUACGUGGA | -0.971 ± 0.052 | -0.376 ± 0.061 |
| CCCAAGCAAUAUUACGUGUA | -2.85 ± 0.096 | -2.3 ± 0.11 |
| CCCAAGCAAUAUUACGUUCC | -3.87 ± 0.37 | -2.3 ± 0.37 |
| CCCCAGCAAUAUUACGACAG | -3.96 ± 0.12 | -2.92 ± 0.14 |
| CCCCAGCAAUAUUACGACAU | -3.936 ± 0.02 | -2.94 ± 0.037 |
| CCCCAGCAAUAUUACGACCC | -0.862 ± 0.32 |  |
| CCCCAGCAAUAUUACGACUC | -2.97 ± 0.12 | -2.11 ± 0.21 |
| CCCCAGCAAUAUUACGAGUG | -3.21 ± 0.12 | -2.92 ± 0.14 |
| CCCCAGCAAUAUUACGAGUU | -4.17 ± 0.18 | -2.31 ± 0.17 |
| CCCCAGCAAUAUUACGAUUC | -3.81 ± 0.2 | -2.46 ± 0.23 |
| CCCCAGCAAUAUUACGCCUU | -3 ± 0.22 | -2.4 ± 0.37 |
| CCCCAGCAAUAUUACGCGAG | -3.18 ± 0.15 | -3.14 ± 0.31 |
| CCCCAGCAAUAUUACGGAAU | -3.31 ± 0.13 | -2.4 ± 0.2 |
| CCCCAGCAAUAUUACGGAGU | -4.02 ± 0.15 | -2.75 ± 0.15 |
| CCCCAGCAAUAUUACGGAUU | -4.3 ± 0.16 | -2.37 ± 0.13 |
| CCCCAGCAAUAUUACGGCCG | -3.62 ± 0.17 | -1.88 ± 0.16 |
| CCCCAGCAAUAUUACGGCUG | -4.06 ± 0.19 | -1.99 ± 0.15 |
| CCCCAGCAAUAUUACGGGGU | -3.9 ± 0.12 | -2.54 ± 0.11 |
| CCCCAGCAAUAUUACGGGUG | -3.8 ± 0.12 | -2.91 ± 0.13 |
| CCCCAGCAAUAUUACGGUAG | -2 ± 0.065 | -1.31 ± 0.097 |
| CCCCAGCAAUAUUACGGUGU | -3.26 ± 0.11 | -1.94 ± 0.1 |
| CCCCAGCAAUAUUACGGUUU | -3.85 ± 0.16 | -3.12 ± 0.21 |
| CCCCAGCAAUAUUACGUCAC | -4.02 ± 0.23 | -2.93 ± 0.26 |
| CCCCAGCAAUAUUACGUCCA | -3.34 ± 0.19 | -3.2 ± 0.28 |
| CCCCAGCAAUAUUACGUCUC | -3.78 ± 0.16 | -3.61 ± 0.19 |
| CCCCAGCAAUAUUACGUGCU | -3.34 ± 0.14 | -2.47 ± 0.16 |

| Sequence | self-splicing fitness (ln) (30 °C) | self-splicing fitness (ln) (37 °C) |
| --- | --- | --- |
| CCCCAGCAAUAUUACGUUAG | -3.99 ± 0.15 | -2.97 ± 0.15 |
| CCCCAGCAAUAUUACGUUGA | -4.14 ± 0.13 | -2.79 ± 0.12 |
| CCCGAGCAAUAUUACGAAAC |  | -0.43 ± 0.4 |
| CCCGAGCAAUAUUACGACUG | -4.27 ± 0.22 | -2.56 ± 0.2 |
| CCCGAGCAAUAUUACGAGAU | -3.49 ± 0.21 | -2.59 ± 0.3 |
| CCCGAGCAAUAUUACGAGGU | -3.75 ± 0.15 | -3.11 ± 0.17 |
| CCCGAGCAAUAUUACGAUUG | -2.74 ± 0.18 | -2.63 ± 0.22 |
| CCCGAGCAAUAUUACGAUUU | -3.84 ± 0.23 | -2.15 ± 0.2 |
| CCCGAGCAAUAUUACGCACC | -3.46 ± 0.28 | -2.35 ± 0.4 |
| CCCGAGCAAUAUUACGCACG |  | -3.26 ± 0.47 |
| CCCGAGCAAUAUUACGCAGA | -3.96 ± 0.25 | -2.71 ± 0.33 |
| CCCGAGCAAUAUUACGCGGA | -3.21 ± 0.28 | -2.23 ± 0.2 |
| CCCGAGCAAUAUUACGCUAG | -3.59 ± 0.37 | -1.73 ± 0.36 |
| CCCGAGCAAUAUUACGCUGG | -3.13 ± 0.16 | -2.68 ± 0.26 |
| CCCGAGCAAUAUUACGCUUG |  | -2.06 ± 0.33 |
| CCCGAGCAAUAUUACGGAAA | -2.2 ± 0.32 | -1.57 ± 0.33 |
| CCCGAGCAAUAUUACGGCAA | -3.03 ± 0.35 | -2.32 ± 0.22 |
| CCCGAGCAAUAUUACGGCAG | -2.53 ± 0.29 | -2.65 ± 0.44 |
| CCCGAGCAAUAUUACGGCUG | -4.35 ± 0.39 | -2.72 ± 0.33 |
| CCCGAGCAAUAUUACGUGGA | -3.08 ± 0.21 | -2.81 ± 0.22 |
| CCCGAGCAAUAUUACGUUCC | -2.86 ± 0.4 |  |
| CCCGAGCAAUAUUACGUUGC | -3.75 ± 0.12 | -2.71 ± 0.16 |
| CCCGAGCAAUAUUACGUUUG | -4.07 ± 0.23 | -2.07 ± 0.14 |
| CCCUAGCAAUAUUACGACGU | -3.83 ± 0.29 | -3.29 ± 0.47 |
| CCCUAGCAAUAUUACGACUG | -4.39 ± 0.36 | -2.92 ± 0.27 |
